Source: IntAct's records for PubMed 31515488

B1: Origin recognition complex subunit 6 (Homo sapiens), Q9Y5N6 (parent)
chain: MGSELIGRLAPRLGLAEPDMLRKAEEYLRLSRVKCVGLSARTTETSSAVMCLDLAASWMKCPLDRAYLIKLSGLNKETYQSCLKSFECLLGLNSNIGIRDLAVQFSCIEAVNMASKILKSYESSLPQTQQVDLDLSRPLFTSAALLSACKILKLKVDKNKMVATSGVKKAIFDRLCKQLEKIGQQVDREPGDVATPPRKRKKIVVEAPAKEMEKVEEMPHKPQKDEDLTQDYEEWKRKILENAASAQKATAE
partner: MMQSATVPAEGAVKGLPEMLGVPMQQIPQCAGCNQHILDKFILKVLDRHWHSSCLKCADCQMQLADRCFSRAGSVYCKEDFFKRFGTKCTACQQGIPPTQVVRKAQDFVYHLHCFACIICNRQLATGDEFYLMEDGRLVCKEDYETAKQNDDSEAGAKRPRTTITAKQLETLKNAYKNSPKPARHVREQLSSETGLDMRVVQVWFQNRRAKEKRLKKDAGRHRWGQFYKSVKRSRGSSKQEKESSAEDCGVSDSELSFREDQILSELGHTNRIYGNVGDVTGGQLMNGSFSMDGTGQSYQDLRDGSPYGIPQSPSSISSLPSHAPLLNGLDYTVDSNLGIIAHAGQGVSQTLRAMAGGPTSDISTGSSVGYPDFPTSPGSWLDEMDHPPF
B2: E3 ubiquitin-protein ligase RNF185 (Homo sapiens), Q96GF1 (parent)
chain: MASKGPSASASPENSSAGGPSGSSNGAGESGGQDSTFECNICLDTAKDAVISLCGHLFCWPCLHQWLETRPNRQVCPVCKAGISRDKVIPLYGRGSTGQQDPREKTPPRPQGQRPEPENRGGFQGFGFGDGGFQMSFGIGAFPFGIFATAFNINDGRPPPAVPGTPQYVDEQFLSRLFLFVALVIMFWLLIA
B3: Syntenin-2 (Homo sapiens), Q9H190 (parent)
chain: MSSLYPSLEDLKVDQAIQAQVRASPKMPALPVQATAISPPPVLYPNLAELENYMGLSLSSQEVQESLLQIPEGDSTAVSGPGPGQMVAPVTGYSLGVRRAEIKPGVREIHLCKDERGKTGLRLRKVDQGLFVQLVQANTPASLVGLRFGDQLLQIDGRDCAGWSSHKAHQVVKKASGDKIVVVVRDRPFQRTVTMHKDSMGHVGFVIKKGKIVSLVKGSSAARNGLLTNHYVCEVDGQNVIGLKDKKIMEILATAGNVVTLTIIPSVIYEHMVKKLPPVLLHHTMDHSIPDA
partner: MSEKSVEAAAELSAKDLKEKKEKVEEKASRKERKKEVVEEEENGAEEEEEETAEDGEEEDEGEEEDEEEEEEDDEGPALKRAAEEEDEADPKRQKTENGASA
B4: Oxidative stress-induced growth inhibitor 1 (Homo sapiens), Q9UJX0 (parent)
chain: MSSSRKDHLGASSSEPLPVIIVGNGPSGICLSYLLSGYTPYTKPDAIHPHPLLQRKLTEAPGVSILDQDLDYLSEGLEGRSQSPVALLFDALLRPDTDFGGNMKSVLTWKHRKEHAIPHVVLGRNLPGGAWHSIEGSMVILSQGQWMGLPDLEVKDWMQKKRRGLRNSRATAGDIAHYYRDYVVKKGLGHNFVSGAVVTAVEWGTPDPSSCGAQDSSPLFQVSGFLTRNQAQQPFSLWARNVVLATGTFDSPARLGIPGEALPFIHHELSALEAATRVGAVTPASDPVLIIGAGLSAADAVLYARHYNIPVIHAFRRAVDDPGLVFNQLPKMLYPEYHKVHQMMREQSILSPSPYEGYRSLPRHQLLCFKEDCQAVFQDLEGVEKVFGVSLVLVLIGSHPDLSFLPGAGADFAVDPDQPLSAKRNPIDVDPFTYQSTRQEGLYAMGPLAGDNFVRFVQGGALAVASSLLRKETRKPP
partner: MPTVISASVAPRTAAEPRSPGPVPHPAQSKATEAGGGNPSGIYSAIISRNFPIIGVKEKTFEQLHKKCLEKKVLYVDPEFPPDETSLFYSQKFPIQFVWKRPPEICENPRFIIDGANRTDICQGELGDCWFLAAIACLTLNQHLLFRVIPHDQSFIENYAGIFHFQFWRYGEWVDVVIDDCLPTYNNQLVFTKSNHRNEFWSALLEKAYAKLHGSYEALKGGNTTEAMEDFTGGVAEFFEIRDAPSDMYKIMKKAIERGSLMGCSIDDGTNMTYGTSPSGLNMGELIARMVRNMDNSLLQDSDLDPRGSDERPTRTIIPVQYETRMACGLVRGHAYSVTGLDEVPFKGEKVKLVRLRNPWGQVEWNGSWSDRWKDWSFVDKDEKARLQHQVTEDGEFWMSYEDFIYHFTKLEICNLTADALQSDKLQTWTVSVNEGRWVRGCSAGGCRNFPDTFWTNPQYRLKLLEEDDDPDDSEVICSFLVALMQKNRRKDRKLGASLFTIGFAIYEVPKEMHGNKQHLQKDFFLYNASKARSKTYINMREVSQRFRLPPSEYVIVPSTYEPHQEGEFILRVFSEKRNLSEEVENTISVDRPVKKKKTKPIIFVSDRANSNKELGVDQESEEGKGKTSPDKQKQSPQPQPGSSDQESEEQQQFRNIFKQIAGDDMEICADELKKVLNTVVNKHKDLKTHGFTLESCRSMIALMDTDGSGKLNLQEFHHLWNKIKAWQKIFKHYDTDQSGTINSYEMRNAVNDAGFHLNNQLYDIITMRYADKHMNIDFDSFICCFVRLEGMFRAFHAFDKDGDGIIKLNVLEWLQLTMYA
B5: Cyclin-dependent kinase 2-interacting protein (Homo sapiens), Q9BW66 (parent)
chain: MEAKTLGTVTPRKPVLSVSARKIKDNAADWHNLILKWETLNDAGFTTANNIANLKISLLNKDKIELDSSSPASKENEEKVCLEYNEELEKLCEELQATLDGLTKIQVKMEKLSSTTKGICELENYHYGEESKRPPLFHTWPTTHFYEVSHKLLEMYRKELLLKRTVAKELAHTGDPDLTLSYLSMWLHQPYVESDSRLHLESMLLETGHRAL
partner: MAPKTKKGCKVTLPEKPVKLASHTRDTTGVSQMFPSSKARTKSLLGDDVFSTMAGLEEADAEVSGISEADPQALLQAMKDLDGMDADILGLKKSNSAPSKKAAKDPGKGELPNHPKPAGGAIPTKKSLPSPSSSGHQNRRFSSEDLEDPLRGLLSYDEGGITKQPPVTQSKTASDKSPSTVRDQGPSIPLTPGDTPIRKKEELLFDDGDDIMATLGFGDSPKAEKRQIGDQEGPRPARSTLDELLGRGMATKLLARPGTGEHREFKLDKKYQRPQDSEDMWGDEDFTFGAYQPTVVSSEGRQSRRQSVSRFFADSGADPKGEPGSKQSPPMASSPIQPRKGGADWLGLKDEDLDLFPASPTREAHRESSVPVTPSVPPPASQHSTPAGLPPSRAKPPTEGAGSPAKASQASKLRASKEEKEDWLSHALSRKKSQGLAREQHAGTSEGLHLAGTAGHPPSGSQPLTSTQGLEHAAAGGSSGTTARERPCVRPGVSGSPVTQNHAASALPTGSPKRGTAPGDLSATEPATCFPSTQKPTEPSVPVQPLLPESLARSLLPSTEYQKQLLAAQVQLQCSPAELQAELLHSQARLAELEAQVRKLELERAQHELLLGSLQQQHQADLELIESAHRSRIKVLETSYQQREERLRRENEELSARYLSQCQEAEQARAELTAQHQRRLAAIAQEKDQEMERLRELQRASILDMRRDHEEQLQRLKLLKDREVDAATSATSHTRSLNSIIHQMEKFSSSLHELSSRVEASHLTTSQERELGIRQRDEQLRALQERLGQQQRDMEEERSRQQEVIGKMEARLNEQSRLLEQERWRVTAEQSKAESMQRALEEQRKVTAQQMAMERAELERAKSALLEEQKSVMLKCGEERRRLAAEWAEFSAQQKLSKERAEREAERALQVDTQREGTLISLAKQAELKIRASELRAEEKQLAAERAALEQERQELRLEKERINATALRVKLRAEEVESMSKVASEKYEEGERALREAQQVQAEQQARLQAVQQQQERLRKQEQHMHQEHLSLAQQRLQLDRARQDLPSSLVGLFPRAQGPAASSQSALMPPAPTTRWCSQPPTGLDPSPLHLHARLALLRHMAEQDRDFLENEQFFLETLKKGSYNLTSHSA
B6: IQ motif and ubiquitin-like domain-containing protein (Homo sapiens), Q8NA54 (parent)
chain: MSNQQEKYEAQNIVNSTEESDDAFDTVTIPVPSEEPQESDQTEEHESGIEQFSESHAIHVEEQSDQSFSSLEPDNEQLMEEVISPRQVSYTPQHHEKQYAMQRPNDDSLAFLDKIKSVKESLQESVEDSLATVKVVLIPVGQEIVIPFKVDTILKYLKDHFSHLLGIPHSVLQIRYSGKILKNNETLVQHGVKPQEIVQVEIFSTNPDLYPVRRIDGLTDVSQIITVTVQTGLDQYQQVPVEIVKSDFHKPFLGGFRHKVTGVEYHNAGTQTVPKRIPERLSIFCRDTQTVFQKKNLQQTTNTTSTQMTNIGVYVSNMTDKLVTPGKYFSAAEYHAQRLKAVIVIQTYYRQWHAKIFVENLRRQKSLRLEWETQQELRKIREKEEWIKLDYHRRHNPKTNEDFEFLYNALEFWRQEELTRINQSFTGAERKAALCELLEKETQIIASIGRHRYIAYMANQEAAIQAFLDKCSAPKIWRTPNGKTIEMDTQFTIRARELQNIYKCIMLKNISQDERLDVLLTLKHTVKEHECKLTQEILELIDREVDLMMRGVKHHNLEGLRKRIATLFFHYIKTPLFNPEVAKYLKVPQDPLKFYKKIYFCHSCQLYLPSTEFSVSSTSRRIYRCRNCINLQNEAQKRESFLKYKCLLQQLYYTEADYEDDSKIAFLMQLQDIQYLTENIWASQSVLSACDNLSDLVMVRWNKSLEWSPWNCILLTKDEAAAHLKLTSIEEGYERSFIHKIKHKHILAKNYFSQVPVLASFILDDGEIDEIRWKYHSDTTPKIIESQRPPH
partner: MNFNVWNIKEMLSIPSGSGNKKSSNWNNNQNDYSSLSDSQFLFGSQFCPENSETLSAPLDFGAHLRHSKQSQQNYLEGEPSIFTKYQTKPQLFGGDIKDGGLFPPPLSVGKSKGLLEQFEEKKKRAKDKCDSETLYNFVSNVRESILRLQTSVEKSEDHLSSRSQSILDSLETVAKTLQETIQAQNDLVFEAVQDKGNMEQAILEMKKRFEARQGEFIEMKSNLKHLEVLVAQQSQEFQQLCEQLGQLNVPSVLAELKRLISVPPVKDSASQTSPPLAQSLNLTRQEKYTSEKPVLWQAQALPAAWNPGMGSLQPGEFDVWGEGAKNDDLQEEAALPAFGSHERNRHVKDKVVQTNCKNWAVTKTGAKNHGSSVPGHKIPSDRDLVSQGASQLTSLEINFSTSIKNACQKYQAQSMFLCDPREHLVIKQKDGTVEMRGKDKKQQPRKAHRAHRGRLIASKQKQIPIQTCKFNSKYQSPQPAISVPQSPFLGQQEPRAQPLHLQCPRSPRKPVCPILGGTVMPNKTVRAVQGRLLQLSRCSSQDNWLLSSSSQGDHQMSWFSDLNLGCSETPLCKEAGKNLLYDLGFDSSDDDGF
B7: Homeobox protein VENTX (Homo sapiens), O95231 (parent)
chain: MRLSSSPPRGPQQLSSFGSVDWLSQSSCSGPTHTPRPADFSLGSLPGPGQTSGAREPPQAVSIKEAAGSSNLPAPERTMAGLSKEPNTLRAPRVRTAFTMEQVRTLEGVFQHHQYLSPLERKRLAREMQLSEVQIKTWFQNRRMKHKRQMQDPQLHSPFSGSLHAPPAFYSTSSGLANGLQLLCPWAPLSGPQALMLPPGSFWGLCQVAQEALASAGASCCGQPLASHPPTPGRPSLGPALSTGPRGLCAMPQTGDAF

Variants of: B1
Conditions: with lhx4_human LHX4, Q969G2

Row | Variant | effect of a mutation on the interaction
1 | K201N | with no effect

Variants of: B2
Conditions: with ub2e3_human UBE2E3, Q969T4
ub2e3_human UBE2E3, Q969T4, sequence (Q969T4 whole entry): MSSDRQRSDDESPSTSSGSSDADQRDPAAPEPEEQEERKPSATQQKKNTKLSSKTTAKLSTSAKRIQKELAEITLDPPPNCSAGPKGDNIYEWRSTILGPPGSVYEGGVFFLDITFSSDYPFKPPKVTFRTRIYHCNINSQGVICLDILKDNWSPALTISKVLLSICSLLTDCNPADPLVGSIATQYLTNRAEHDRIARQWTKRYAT

Row | Variant | effect of a mutation on the interaction
2 | A17T | with no effect

Variants of: B3
Conditions: with ptms_human PTMS

Row | Variant | effect of a mutation on the interaction
3 | R223C | disrupting interaction strength

Variants of: B4
Conditions: with can3_human CAPN3, P20807

Row | Variant | effect of a mutation on the interaction
4 | D320N | with no effect
5 | S236L | with no effect

Variants of: B5
Conditions: with fbf1_human FBF1, Q8TES7

Row | Variant | effect of a mutation on the interaction
6 | R164H | with no effect

Variants of: B5
Conditions: with fbf1_human FBF1, Q8TES7
Remark: another data set of the same source

Row | Variant | effect of a mutation on the interaction
7 | D177N | with no effect

Variants of: B6
Conditions: with iho1_human IHO1, Q8IYA8

Row | Variant | effect of a mutation on the interaction
8 | V126M | with no effect
9 | I501F | disrupting interaction strength

Variants of: B7
Conditions: with rbpms_human RBPMS

Row | Variant | effect of a mutation on the interaction
10 | A226E | with no effect
11 | M251V | with no effect
